Reference: the Immune Epitope Database (IEDB)

target: HLA-A*68:01; experiment: IEDB peptide-MHC binding, cellular MHC/competitive/fluorescence; ≥ and ≤ were set here for values at or beyond the usual limits of such assays; conditions: source organism: Hepatitis B virus

Q: How did the IC50 turn out when FLGPLLVLQA was run?
A: ≥ 70 µM

Q: How did the IC50 turn out when FLLAQFTSA was run?
A: ≥ 70 µM

Q: FLLAQFTSAI was tested. Which IC50 did it give?
A: 23.6 µM

Q: How did the IC50 turn out when FLLSLGIHL was run?
A: 15.7 µM

Q: Which IC50 does the source give for FLLTRILTI here?
A: ≥ 70 µM

Q: FLPSDFFPSV was tested. Which IC50 did it give?
A: ≥ 70 µM

Q: With GLLGWSPQA as the sequence, how does the IC50 read?
A: ≥ 70 µM

Q: GLSRYVARV was tested. Which IC50 did it give?
A: ≥ 70 µM

Q: For GMLPVCPLI, which IC50 is on record?
A: ≥ 70 µM

Q: How did the IC50 turn out when HQLDPAFRA was run?
A: ≥ 70 µM

Q: Which IC50 does the source give for ILCWGELMTL here?
A: 43.9 µM

Q: Which IC50 does the source give for ILSPFLPLL here?
A: ≥ 70 µM

Q: With KQYLNLYPV as the sequence, how does the IC50 read?
A: ≥ 70 µM

Q: How did the IC50 turn out when KVGAGAFGL was run?
A: ≥ 70 µM

Q: With LLVLLDYQGM as the sequence, how does the IC50 read?
A: ≥ 70 µM

Q: For LVPFVQWFV, which IC50 is on record?
A: ≥ 70 µM

Q: For MMWYWGPSL, which IC50 is on record?
A: ≥ 70 µM

Q: With NLSWLSLDV as the sequence, how does the IC50 read?
A: ≥ 70 µM

Q: With PLLPIFFCL as the sequence, how does the IC50 read?
A: 44.2 µM

Q: With RILTIPQSL as the sequence, how does the IC50 read?
A: ≥ 70 µM

Q: Which IC50 does the source give for RVRGLYFPA here?
A: ≥ 70 µM

Q: For SILSPFLPL, which IC50 is on record?
A: ≥ 70 µM

Q: How did the IC50 turn out when SLYSILSPFL was run?
A: 64 µM

Q: How did the IC50 turn out when SMYPSCCCT was run?
A: ≥ 70 µM

Q: How did the IC50 turn out when VLLDYQGML was run?
A: ≥ 70 µM

Q: Which IC50 does the source give for WLSLLVPFV here?
A: ≥ 70 µM

Q: With WMMWYWGPSL as the sequence, how does the IC50 read?
A: ≥ 70 µM

Q: For YLVSFGVWI, which IC50 is on record?
A: ≥ 70 µM

Q: With YMDDVVLGA as the sequence, how does the IC50 read?
A: ≥ 70 µM

Q: For YQGMLPVCPL, which IC50 is on record?
A: ≥ 70 µM

target: HLA-A*68:02; experiment: as above; conditions: source organism: Hepatitis B virus

Q: For FLCKQYLNL, which IC50 is on record?
A: ≥ 70 µM

Q: With FLGPLLVLQA as the sequence, how does the IC50 read?
A: 30.3 µM

Q: Which IC50 does the source give for FLLAQFTSA here?
A: 9.89 µM

Q: How did the IC50 turn out when FLLSLGIHL was run?
A: 10.5 µM

Q: With FLLTRILTI as the sequence, how does the IC50 read?
A: 22.3 µM

Q: Which IC50 does the source give for GLLGWSPQA here?
A: ≥ 70 µM

Q: For GLSRYVARV, which IC50 is on record?
A: 8.86 µM

Q: How did the IC50 turn out when HQLDPAFRA was run?
A: ≥ 70 µM

Q: How did the IC50 turn out when ILCWGELMTL was run?
A: 7.82 µM

Q: KQYLNLYPV was tested. Which IC50 did it give?
A: 36.8 µM

Q: How did the IC50 turn out when KVGAGAFGL was run?
A: ≥ 70 µM

Q: With LLVLLDYQGM as the sequence, how does the IC50 read?
A: 61.1 µM

Q: Which IC50 does the source give for NLSWLSLDV here?
A: 28.4 µM

Q: Which IC50 does the source give for PLLPIFFCL here?
A: 33.1 µM

Q: RILTIPQSL was tested. Which IC50 did it give?
A: ≥ 70 µM

Q: How did the IC50 turn out when RVRGLYFPA was run?
A: 17.2 µM

Q: For SLYSILSPFL, which IC50 is on record?
A: 6.67 µM

Q: Which IC50 does the source give for SMYPSCCCT here?
A: ≥ 70 µM

Q: With VLLDYQGML as the sequence, how does the IC50 read?
A: ≥ 70 µM

Q: YLVSFGVWI was tested. Which IC50 did it give?
A: 38.2 µM

Q: YMDDVVLGA was tested. Which IC50 did it give?
A: 50.1 µM

Q: Which IC50 does the source give for YQGMLPVCPL here?
A: 5.34 µM

same assay, conditions: source organism: Influenza A virus

Q: How did the IC50 turn out when YLEKANKI was run?
A: ≥ 70 µM

same assay, conditions: source organism: Mammarenavirus guanaritoense

Q: Which IC50 does the source give for YVIGLLPQS here?
A: ≥ 70 µM

same assay, conditions: source organism: Mammarenavirus machupoense

Q: For YNCKCCWFA, which IC50 is on record?
A: 52.9 µM

Q: With YNFSLSAAV as the sequence, how does the IC50 read?
A: 29.7 µM

same assay, conditions: source organism: Mammarenavirus whitewaterense

Q: YCHGILLKDV was tested. Which IC50 did it give?
A: 57.6 µM

same assay, conditions: source organism: Vaccinia virus WR

Q: KLYIALCKV was tested. Which IC50 did it give?
A: 16.6 µM

Q: For VMDKNHAIFT, which IC50 is on record?
A: 13 µM

Q: With VTGSYNLVDT as the sequence, how does the IC50 read?
A: ≥ 70 µM

Q: For VTKSSSWKDV, which IC50 is on record?
A: 40.4 µM

Q: For VVKDKIKLPT, which IC50 is on record?
A: 42.7 µM

Q: With YIKDLKHAT as the sequence, how does the IC50 read?
A: ≥ 70 µM

Q: YTLIYRQLT was tested. Which IC50 did it give?
A: 7.86 µM

Q: For YVEHDPRLVA, which IC50 is on record?
A: 31.1 µM

Q: With YVKNGTKGKL as the sequence, how does the IC50 read?
A: 32.6 µM

Q: How did the IC50 turn out when YVPSAEDNYL was run?
A: ≥ 70 µM

target: HLA-A*02:01; experiment: IEDB peptide-MHC binding, purified MHC/competitive/radioactivity; ≥ and ≤ were set here for values at or beyond the usual limits of such assays; conditions: source organism: Hepatitis B virus

Q: FLAPLPIHTA was tested. Which IC50 did it give?
A: 0.0013 µM

Q: FLLAQFTSA was tested. Which IC50 did it give?
A: 0.098 µM

Q: GLSRYVARV was tested. Which IC50 did it give?
A: 0.154 µM

Q: With ILSPFLPLL as the sequence, how does the IC50 read?
A: 0.0014 µM

Q: How did the IC50 turn out when KQYLNLYPV was run?
A: 0.138 µM

Q: Which IC50 does the source give for LVPFVQWFV here?
A: 0.168 µM

Q: PLLPIFFCL was tested. Which IC50 did it give?
A: 0.111 µM

Q: With SLYSILSPFL as the sequence, how does the IC50 read?
A: 0.0082 µM

Q: For VLLDYQGML, which IC50 is on record?
A: 0.081 µM

Q: How did the IC50 turn out when YLVSFGVWI was run?
A: 0.173 µM
